The assay addresses T1, CD19 (human, UniProt P15391 20-556).
T1 sequence (looked up): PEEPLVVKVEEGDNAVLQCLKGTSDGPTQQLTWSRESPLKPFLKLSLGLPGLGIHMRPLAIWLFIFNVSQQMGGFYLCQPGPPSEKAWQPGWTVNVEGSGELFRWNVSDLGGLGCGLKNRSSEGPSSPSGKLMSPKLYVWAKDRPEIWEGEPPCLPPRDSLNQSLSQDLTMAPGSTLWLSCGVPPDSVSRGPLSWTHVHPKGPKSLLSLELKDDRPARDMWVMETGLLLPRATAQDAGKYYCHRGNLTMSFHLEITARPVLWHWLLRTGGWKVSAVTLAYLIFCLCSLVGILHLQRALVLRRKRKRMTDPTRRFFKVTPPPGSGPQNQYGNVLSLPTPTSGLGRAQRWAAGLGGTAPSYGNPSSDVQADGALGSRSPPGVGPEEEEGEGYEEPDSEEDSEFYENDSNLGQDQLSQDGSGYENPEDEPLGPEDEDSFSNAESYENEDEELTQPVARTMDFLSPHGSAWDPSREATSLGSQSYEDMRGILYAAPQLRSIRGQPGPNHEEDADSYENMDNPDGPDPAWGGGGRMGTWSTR
Description: cell-based or functional assay.

B1: ADCx19 (antibody, V domains shown)
VH: QVQLVQPGAEVVKPGASVKLSCKTSGYTFTSNWMHWVKQAPGQGLEWIGEIDPSDSYTNYNQNFQGKAKLTVDKSTSTAYMEVSSLRSDDTAVYYCARGSNPYYYAMDYWGQGTSVTVS
VL: EIVLTQSPAIMSASPGERVTMTCSASSGVNYMHWYQQKPGTSPRRWIYDTSKLASGVPARFSGSGSGTSYSLTISSMEPEDAATYYCHQRGSYTFGGGTKLEIK
modifications: pyrrolobenzodiazepine (PBD) dimer warhead attached via a cleavable linker, DAR 2+/-0.3; attachment residues not stated
On to B1, for which the “IC50, MTT proliferation assay, 96 h exposure, median over 48 B-cell lymphoma cell lines” value amounted to 4 pM.

Values taken from patent US20210322564A1 (ADC THERAPEUTICS, published 2021).
